According to patent US20240116985A1 (published 2024):
Starred links: 1 amine or outer side, 2 acyl side, 3 side chain; linkers in the order of their positions; H or OH if unused. Positions of bridges follow the written chain, without caps; N, C: chain ends. Non-standard residues stand in square brackets, D forms with d. Primed or numbered codes have the meaning given here. PyrS2″ = (S)-3-amino-1-((pent-4-en-1-yloxy)carbonyl)pyrrolidine-3-carboxylic acid (stapling residue), C=CCCCOC(=O)N1CC[C@@](N[*:1])(C(=O)[*:2])C1; B5(21) = 2-amino-2-(pent-4-en-1-yl)hept-6-enoic acid, bis(4-pentenyl)glycine (stitching residue), C=CCCCC(CCCC=C)(N[*:1])C(=O)[*:2]; B5(3) = 2,2-bis(4-pentenyl)glycine (stitching residue), C=CCCCC(CCCC=C)(N[*:1])C(=O)[*:2]; Bta = N[C@@H](Cc1csc2ccccc12)C(=O)O; αAllylPro = C=CC[C@@]1(C(=O)O)CCCN1; tBuAla = CC(C)(C)C[C@H](N)C(=O)O; 3Thi = N[C@@H](Cc1ccsc1)C(=O)O; S8 = C=CCCCCCC[C@](C)(N)C(=O)O; hSer = N[C@@H](CCO)C(=O)O

T1: B-cat-Halo (UniProt P35222 1-781)
T1 construct: Expressed by transfection in HEK293 cells for the NanoBRET assay; also called beta-catenin HaloTag NanoBRET construct; not shown: HaloTag
T1 sequence (looked up): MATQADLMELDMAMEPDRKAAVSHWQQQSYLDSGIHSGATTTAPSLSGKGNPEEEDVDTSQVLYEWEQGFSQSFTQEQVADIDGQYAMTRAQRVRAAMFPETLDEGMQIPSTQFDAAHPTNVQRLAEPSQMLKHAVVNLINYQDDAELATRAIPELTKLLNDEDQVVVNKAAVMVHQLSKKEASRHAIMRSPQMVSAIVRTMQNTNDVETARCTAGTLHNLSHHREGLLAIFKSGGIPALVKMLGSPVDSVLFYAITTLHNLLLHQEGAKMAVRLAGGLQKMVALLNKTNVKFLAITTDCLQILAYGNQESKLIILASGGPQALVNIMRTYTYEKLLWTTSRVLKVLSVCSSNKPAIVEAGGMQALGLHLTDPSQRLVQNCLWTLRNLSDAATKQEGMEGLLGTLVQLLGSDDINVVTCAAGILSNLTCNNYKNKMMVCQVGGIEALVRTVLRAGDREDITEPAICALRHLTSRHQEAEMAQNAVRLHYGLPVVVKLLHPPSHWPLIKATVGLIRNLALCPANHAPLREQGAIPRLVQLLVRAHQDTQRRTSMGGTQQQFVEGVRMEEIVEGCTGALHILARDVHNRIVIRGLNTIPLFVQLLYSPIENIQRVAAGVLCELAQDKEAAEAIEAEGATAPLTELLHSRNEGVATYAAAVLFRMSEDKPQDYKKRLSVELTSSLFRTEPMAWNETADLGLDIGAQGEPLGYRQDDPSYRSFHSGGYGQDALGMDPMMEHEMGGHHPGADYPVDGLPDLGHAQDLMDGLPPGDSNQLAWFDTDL

T2: beta-catenin in DLD1 TCF/LEF luciferase reporter cells (UniProt P35222 1-781)
T2 sequence (looked up): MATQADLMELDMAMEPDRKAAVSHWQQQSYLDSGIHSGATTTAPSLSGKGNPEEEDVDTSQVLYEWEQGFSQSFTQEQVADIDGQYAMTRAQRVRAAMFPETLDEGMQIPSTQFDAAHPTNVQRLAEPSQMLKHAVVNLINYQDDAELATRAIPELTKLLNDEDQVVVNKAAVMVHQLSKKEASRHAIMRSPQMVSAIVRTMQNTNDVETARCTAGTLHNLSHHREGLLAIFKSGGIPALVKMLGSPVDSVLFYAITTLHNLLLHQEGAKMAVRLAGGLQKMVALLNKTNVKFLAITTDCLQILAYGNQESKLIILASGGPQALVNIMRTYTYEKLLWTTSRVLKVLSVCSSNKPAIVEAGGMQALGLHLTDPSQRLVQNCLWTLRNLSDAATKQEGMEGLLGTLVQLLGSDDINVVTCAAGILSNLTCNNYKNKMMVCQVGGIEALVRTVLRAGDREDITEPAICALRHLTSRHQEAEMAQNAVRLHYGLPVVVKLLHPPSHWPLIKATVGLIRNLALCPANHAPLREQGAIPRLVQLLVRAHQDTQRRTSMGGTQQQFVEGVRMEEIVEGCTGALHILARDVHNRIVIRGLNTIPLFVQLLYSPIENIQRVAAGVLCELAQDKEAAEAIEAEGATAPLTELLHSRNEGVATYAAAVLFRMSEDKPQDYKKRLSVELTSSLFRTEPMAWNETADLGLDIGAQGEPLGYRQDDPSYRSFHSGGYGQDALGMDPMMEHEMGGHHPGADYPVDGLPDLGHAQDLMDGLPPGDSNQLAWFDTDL

T3: B-cat-Halo (beta-catenin HaloTag construct expressed in HEK293 cells) (UniProt P35222 1-781)
T3 sequence (looked up): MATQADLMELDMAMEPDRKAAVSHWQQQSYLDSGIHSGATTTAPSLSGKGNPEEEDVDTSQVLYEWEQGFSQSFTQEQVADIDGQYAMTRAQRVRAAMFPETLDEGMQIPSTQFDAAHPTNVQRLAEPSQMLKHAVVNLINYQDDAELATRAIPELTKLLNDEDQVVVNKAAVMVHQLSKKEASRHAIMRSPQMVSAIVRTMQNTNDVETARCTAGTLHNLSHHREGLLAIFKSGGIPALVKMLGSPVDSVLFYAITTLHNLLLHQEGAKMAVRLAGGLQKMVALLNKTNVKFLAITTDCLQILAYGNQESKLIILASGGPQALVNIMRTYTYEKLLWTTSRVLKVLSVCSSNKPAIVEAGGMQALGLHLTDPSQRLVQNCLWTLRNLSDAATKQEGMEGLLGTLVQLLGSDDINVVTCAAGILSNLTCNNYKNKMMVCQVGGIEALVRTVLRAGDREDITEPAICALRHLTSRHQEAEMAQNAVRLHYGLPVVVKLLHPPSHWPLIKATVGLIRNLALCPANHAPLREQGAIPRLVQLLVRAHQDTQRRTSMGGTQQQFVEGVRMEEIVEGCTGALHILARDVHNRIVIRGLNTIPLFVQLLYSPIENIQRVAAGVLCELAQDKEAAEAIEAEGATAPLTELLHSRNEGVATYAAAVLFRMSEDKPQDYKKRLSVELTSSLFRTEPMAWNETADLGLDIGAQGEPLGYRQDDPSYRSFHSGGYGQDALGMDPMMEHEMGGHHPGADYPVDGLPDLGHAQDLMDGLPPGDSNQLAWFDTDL


What was measured:
B-cat-Halo = target: T1, B-cat-Halo; experiment: NanoBRET Abs IC50 in HEK293 cells; Bcat-Halo, TCF4-Luc as competitor
[1] = target: T2, beta-catenin in DLD1 TCF/LEF luciferase …; experiment: cell-based or functional assay
[2] = target: T3, B-cat-Halo (beta-catenin HaloTag …); experiment: cell-based or functional assay

Row | IC50 (B-cat-Halo) | DLD1 4% Abs IC50 [1] | NanoBRET Abs IC50 [2] | Binder
1 | 10.4 µM |  |  | Ac-[αAllylPro]DL[B5(21)]DEAAFN[S8]F[Bta]Q-NH2 (staple 1-4, 4-11; not fully specified, Stapled peptide composition; also called Ac-PL3-Asp-Leu-B5-Asp-Glu-Ala-Ala-Phe-Asn-S8-Phe-BztA-Gln-NH2) [I-577]
2 | 11.1 µM |  |  | XDLXDEAAFNXFXQ (not fully specified; N-terminal Ac; C-terminal NH2; non-natural PL3 (1), B5 (4), S8 (11), BztA (13); stapled PL3-B5 and B5-S8 by olefin metathesis, Stapled peptide composition; also called Ac-PL3-Asp-Leu-B5-Asp-Glu-Ala-Ala-Phe-Asn-S8-Phe-BztA-Gln-NH2) [I-576]
3 |  | 9 µM | 9.6 µM | Ac-[αAllylPro]D[tBuAla][B5(3)]DDAAF[hSer][PyrS2″][3Thi][Bta]Q-NH2 (staple 1-4, 4-11) [I-803]
